Assay [1] deals with T1, peptide set forth in SEQ ID NO: 268 (human).
T1 peptide: FTSGEKEQVDEW
The experiment in a line: ELISA on immobilised synthetic CAPRIN-1 peptides, culture supernatant.

In assay [2] the target is T2, polypeptide set forth in SEQ ID NO: 266 (human).
T2 construct: identified by ELISA on synthetic 12-16 aa peptides of human CAPRIN-1
T2 peptide: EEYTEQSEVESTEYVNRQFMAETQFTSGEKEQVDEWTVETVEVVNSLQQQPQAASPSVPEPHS
The assay is described as above.

For assay [3], the target named is T3, CAPRIN-1 protein on the cell surface of human cancer cells (human, UniProt Q14444 2-709).
T3 construct: whole, on cells; endogenous protein of human cancer cell lines
T3 sequence (looked up): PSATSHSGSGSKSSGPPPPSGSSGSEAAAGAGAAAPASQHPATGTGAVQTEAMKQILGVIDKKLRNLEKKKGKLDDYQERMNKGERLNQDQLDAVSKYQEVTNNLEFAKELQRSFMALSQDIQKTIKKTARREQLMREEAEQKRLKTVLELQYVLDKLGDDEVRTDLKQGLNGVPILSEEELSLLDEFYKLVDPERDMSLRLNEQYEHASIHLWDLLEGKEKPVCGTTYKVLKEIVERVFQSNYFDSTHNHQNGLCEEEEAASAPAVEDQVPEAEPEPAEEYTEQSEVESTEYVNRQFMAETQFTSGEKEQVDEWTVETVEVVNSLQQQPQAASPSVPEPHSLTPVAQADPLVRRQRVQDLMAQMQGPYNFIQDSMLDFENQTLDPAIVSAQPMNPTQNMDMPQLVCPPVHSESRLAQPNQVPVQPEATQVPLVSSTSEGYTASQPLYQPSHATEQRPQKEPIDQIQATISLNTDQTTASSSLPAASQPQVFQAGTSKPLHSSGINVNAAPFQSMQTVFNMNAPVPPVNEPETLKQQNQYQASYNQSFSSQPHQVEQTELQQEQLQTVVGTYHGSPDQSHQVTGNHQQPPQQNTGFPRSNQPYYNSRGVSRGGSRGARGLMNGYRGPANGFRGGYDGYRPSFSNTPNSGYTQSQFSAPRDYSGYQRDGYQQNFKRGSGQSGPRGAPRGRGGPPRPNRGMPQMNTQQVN
The assay is described as follows: flow cytometry on Hep3B, HepG2, SK-Hep-1, SW480; culture supernatant; vs isotype control. The protocol:
Subsequently, four liver cancer cell lines (Hep3 GB, HepG2, SK-Hep-1, and SW480), which were confirmed to express a CAPRIN-1 gene, were investigated for whether or not a CAPRIN-1 protein is expressed on the surfaces of these cells. 1×10⁶ cells of each cell line were centrifuged with a 1.5-mL micro centrifugation tube. To the cells was added the culture supernatant (100 μL) containing any of mouse monoclonal antibodies #1 to #22 against a CAPRIN-1 protein reacting to cancer cell surface produced in Example 4 and mouse-chicken chimeric antibodies #1 to #3 against a CAPRIN-1 protein produced in the above (2), followed by being left to stand on ice for 1 hour. After washing with PBS, the cells were suspended in a FITC-labeled goat anti-mouse IgG antibody (manufactured by Invitrogen Corporation) diluted by 500-fold with PBS containing 0.1% FBS, followed by being left to stand on ice for 1 hour. After washing with PBS, the fluorescence intensity was measured with FACS Calibur available from Becton, Dickinson and Company. Separately, as a control, the same procedure as in above was performed using an iso-type control antibody, instead of the culture supernatants containing the mouse monoclonal antibodies #1 to #22 against a CAPRIN-1 protein and the mouse-chicken chimeric antibodies #1 to #3. As a result, the fluorescence intensity in the cells to which any of the monoclonal antibodies #1 to #22 and the mouse-chicken chimeric antibodies #1 to #3 was added was 20% or more higher than that in the control in every case. Specifically, in the case of using mouse-chicken chimeric antibody #1, the fluorescence intensity was enhanced by 200% or more in both SK-Hep-1 and Hep3B. […] The rate of increase in the fluorescence intensity is represented by the rate of increase in the mean fluorescence intensity (MFI value) in each cell and is calculated by the following calculation formula: […]

Assay [4] concerns the target T3, CAPRIN-1 protein on the cell surface of …. The experiment in a line: cell-based or functional assay.
Assay [5] concerns the target T4, polypeptide comprising the amino acid sequence set forth in SEQ ID NO: 269 (human).
T4 peptide: PPVNEPETLKQQNQYQAS
The experiment in a line: ELISA on immobilised synthetic CAPRIN-1 peptides, culture supernatant.

In assay [6] the target is T5, polypeptide set forth in SEQ ID NO: 431 (human).
T5 peptide: VERVFQSNYFDSTHNH
Described as above.

The target of assay [7] is T3, CAPRIN-1 protein on the cell surface of …. The assay is described as follows: flow cytometry on Hep3B, HepG2, SK-Hep-1, SW480; antibody 20 ug/mL; control: secondary antibody only. How it is done: Four human liver cancer cell lines (Hep3 GB, HepG2, SK-Hep-1, and SW480) were investigated whether or not a CAPRIN-1 protein is expressed on the cell surface using mouse anti-CAPRIN-1 monoclonal antibodies #30 to #36. 5×10⁵ cells of each of the liver cancer cell lines were centrifuged with a 1.5-mL micro centrifugation tube. The cells were subjected to reaction with each of mouse anti-CAPRIN-1 antibodies #30 to #36 at a final concentration of 20 μg/mL, followed by being left to stand on ice for 1 hour. After washing with PBS, the cells were reacted with a 100-fold diluted Alexa488-labeled goat anti-mouse IgG antibody (manufactured by Invitrogen Corporation), followed by being left to stand on ice for […]. After washing with PBS, the fluorescence intensity was measured with FACS Calibur available from Becton, Dickinson and Company. Separately, the cells were subjected to reaction with only the secondary antibody as a negative control.

Assay [8] concerns the target T6, polypeptide set forth in SEQ ID NO: 430 (human).
T6 peptide: ATQVPLVSSTSEGYTA
The experiment in a line: ELISA on 93 synthetic CAPRIN-1 peptides, purified antibody 0.1 ug/mL. The protocol:
Candidate peptides (93 peptides) each consisting of 12 to 16 amino acids of the amino acid sequence of the human CAPRIN-1 protein were synthesized and were each dissolved at a concentration of 1 mg/mL in DMSO. Each peptide was dissolved at a concentration of 30 μg/mL in a 0.1 M sodium carbonate buffer (pH 9.6). The solution was added to a 96-well plate (manufactured by Nunc, Product No. 436006) at 100 μL per well, followed by being left to stand at 4° C. overnight. The solution was removed, and 200 μL of 10 mM ethanolamine/0.1 M sodium carbonate buffer (pH 9.6) was added to each well, followed by being left to stand at room temperature for 1 hour. The solution was removed, and each well was washed with PBS containing 0.5% Tween 20 (PBST) twice to prepare a peptide-immobilized plate. For confirmation, this plate was also provided with a well to which the CAPRIN-1 protein was immobilized in accordance with the method described above. Rabbit anti-CAPRIN-1 monoclonal antibody #1 purified to a concentration of 0.1 ug/mL by a usual method was added to the plate at an amount of 50 μL per well, followed by shaking at room temperature for 1 hour. The solution was removed, and each well was washed with PBST three times. […] The absorbance was measured at 450 nm and 595 nm with an absorption spectrometer. […]

For assay [9], the target named is T6, polypeptide set forth in SEQ ID NO: 430. The experiment in a line: ELISA as in Example 13(1), purified antibody.

Bounds are passed on as bounds.

B1: mouse monoclonal antibody #5 (antibody, V domains shown)
VH: DAELVKPGASVKISCKASGYTFTDHSIHWVQQKPEQGLEWIGYISPGNGNIKYNEKFKGKATLTADKSSSTAYMQLNSLTSEDSAVYFCKRSLGRGGPYYFDYWGQGTTVTVSS
VL: DIVLTQAAPSLPVTPGESVSISCRSSKSLLHSNGNTYLYWFLQRPGQSPQLLIYRMSNLASGVPDRFSGSGSGTAFTLRISRVEAEDVGVYYCMQHREYPVTFGSGPN
notes: mouse hybridoma antibody
On to B1, for which the binding result in assay [1] and in [2] was “binds” each time. The “rate of increase in mean fluorescence intensity” value in [3] was no less than 20%. In assay [4], the “cytotoxicity (ADCC, 51Cr release) on SK-Hep-1” value is no less than 12%.

B2: human-chicken chimeric antibody #3 (antibody, human IgG1, kappa, V domains shown)
VH: AVTLDESGGGLQTPGGALSLVCKASGFTFSGYDMLWVRQAPGKGLEWVAGIGSTGGGTDYGAAVKGRATISRDNGQSTVRLQLNNLRAEDTATYYCAKVAGGCNSGYCRDSPGSIDAWGHGTEVIVSA
VL: AVTQQPASVSANPGETVKITCSGGGSRNYYGWYQQKSPGSVPVTVIYYDDQRPSNIPSRFSGALSGSTSTLTITGVQADDEAVYFCGSADSNTYEGSFGAGTTLTVLT
notes: produced similarly to human-chicken chimeric antibody #1 from chicken monoclonal antibody #3; human IgG1 constant domains; also called human-chicken chimeric monoclonal antibody #3
Consider B2, for which the binding result in assay [5] is listed as “binds”. The “cytotoxicity (ADCC, 51Cr release) on SK-Hep-1” value in [4] was no less than 12%.

B3: mouse anti-CAPRIN-1 antibody #34 (antibody, V domains shown)
VH: GAELVRPGTSVKVSCKASVYAFTNYLIEWVKQRPGQGLEWIGVINPKSGGTKYNEKFRGKATLTADKSSSTAYMQLSSLTSGDSAVYFCAITGTDYWGQGTTLTVSS
VL: QGTRCDIQMTQTTSSLSASLGDRVTISCSASQGINNYLNWYQQKPDGTVKLLIYYTSSLRSGVPSRFSGSGSGTDYSLTISNLEPEDVATYYCQQYSKLPRTFGGGTKLEIKR
notes: mouse hybridoma antibody; also called mouse anti-CAPRIN-1 monoclonal antibody #34; mouse anti-CAPRN-1 antibody #34
Turning to B3, in [6], the binding result is recorded as “binds”. The “increase in fluorescence intensity over the control” value in assay [7] is no less than 35%.

B4: rabbit anti-CAPRIN-1 monoclonal antibody #1 (antibody, V domains shown)
VH: QSLEESGGDLVKPGASLTLTCTASGFSFSGSYYMSWVRQAPGKGLEWIAYIYIGDGVTAYANWAKGRFTISKASSTTVTLQMTSLTAADTATYFCARGNKLWGPGTLVTVSS
VL: DVVMTQTPASVEAAVGGTVTIKCQASQSISSYLAWYQQKPGQPPKRLIYDASNLDSGVPSRFKGSGSGTDFTITISDLECADAATYYCQCTAVSSATIYGNAFGGGTEVVVK
notes: rabbit hybridoma antibody
As to B4, in [8], the binding result was “binds”.

B5: human-rabbit chimeric anti-CAPRIN-1 antibody #1 (antibody, V domains shown)
VH: QSLEESGGDLVKPGASLTLTCTASGFSFSGSYYMSWVRQAPGKGLEWIAYIYIGDGVTAYANWAKGRFTISKASSTTVTLQMTSLTAADTATYFCARGNKLWGPGTLVTVSS
VL: DVVMTQTPASVEAAVGGTVTIKCQASQSISSYLAWYQQKPGQPPKRLIYDASNLDSGVPSRFKGSGSGTDFTITISDLECADAATYYCQCTAVSSATIYGNAFGGGTEVVVK
notes: also called human-rabbit chimeric anti-CAPRIN-1 monoclonal antibody #1
With B5, the binding result in assay [9] is “binds”.

(Values after patent US20150218285A1 (TORAY INDUSTRIES, published 2015).)
